Data as given in the DeepSol protein solubility set.

Assay: soluble on expression in E. coli; label from the status in PepcDB or PDB records

Sequence	soluble on expression in E. coli
MAHHHHHHMTGSDEEFEIGDILDIKKKKNGFIYLVNWKGYSDDENTWEPESNLLHLTTFKKKMELLKSAYLNKVDTTQNDGNLLKNHLTSPSSLQEETGTTNITKTKGRNPLISKKKGNKKGVTNKLEAKKLLSTNSDNSQKMSDDEYNESIKQETIENPHDSSLLNVEDVYSVRIKNRKMEFLASLKNASPQWVEESNIRRTGHLNIKVNDFKKYIRRKKTSKGNRIVIKNLHNVGDELYISVIHNINNKEIHSLYPSKVIEYIYPQELLNFLLSRLRYRTA	soluble
SQLADAEKINVPFPSSQTVVRLGQIGIDHHNQNYFPLMVGNYILGGGTLVSRLGTEVREKRGLTYGIDSQFVPMLGEGPFIISLSTKNSEARNALHITQDTLIKFIKNGPNQEELASAKQYLTGSFPLSLGSNTNIANLLLRMAFYHLPDNYLDTYVAKINAVTDAEIKQAFQQQVNPEKLLLVTVGQ	not soluble
MTDERYGYIHASMLPTQCLCTKLRRAARSVSRFYDEALADTGLKVAQFSLLRHLRRLDRPSISELAEAMGLDRSTLGRNLRVLEGDGLLRLTGGEDQRNRLVELTPAGLDALERGTPAWEDAQRRLAGRLGEERSGALAALLAELERLD	not soluble
MSLSRKYFGTDGIRGRVGEFPITPDFVLKLGWAVGMAFRRQGNCRVLIGKDTRSSGYMFESAFEAGLSASGADTLLLGPMPTPGIAYLTRTFHAEAGVVISASHNPHDDNGIKFFSGQGTKLPDDVELMIEELLDAPMTVVESARLGKVSRINDAAGRYIEFCKSSVPTSTDFNGLKVVLDCANGATYKIAPSVFRELGAEVTVLAASPNGLNINDKCGSTHLDGLQAAVVEHHADLGIAFDGDGDRVMMVDHTGAVVDGDELLFLIARDLQESGRLQGGVVGTLMSNLGLELALQELHIPFVRAKVGDRYVMAELLARNWMLGGENSGHIVCCQNTTTGDAIIAALQVLMALKHRGQTLAEARQGIRKCPQVLINVRFKGENDPLEHPSVKEASVRVTEQMGGRGRVLLRKSGTEPLVRVMVEGDEEASVRAHAEQLAKIVSEVCAEGHHHHHH	soluble
MGSDKIHHHHHHMVKSANLLHVSQPAVTKTVRELEEILGVSLFEREGRGIRITRYGEVFLRHAGATLAALRHAVDSVSQEAAKAGPPVRVGALPTVATRIMPQAMTAFLAENTGSPIKIVTGDNSVLLEQLRIGELDLVVGRLAAPEKMAGFSFEHLYSEPVVFVVRAGHPLLTGETAPFERMRDFPVLMPTRNSIIRPLVDYFLIANGVATLPNQIETVSDSFGRAFLKISDAVWVISEGVVAGDIAEGTICALPIDCSPTRGPVGLTVRADAMATLPQSLLMQAIRDAAAAIMP	not soluble
MGSDKIHHHHHHMSTVAFHTLGCKVNHYETEAIWQLFKEANYERVDFEANADVFVINTCTVTNTGDKKSRQIIRRAIRQNPDAVICVTGCYAQTSSAEIMEIPGVDVVVGTQDRHKLLGYIDEFRKERQPINGVGNIMKNRKYEELDVPYFTDRTRASLKIQEGCNNFCTFCIIPWARGLMRSRDPEKVVEQATQLVNSGYKEIVLTGIHTGGYGQDLKDYNLAQLLRDLETINGLERIRISSIEASQLTDEVIDVLERSTKVVRHLHIPLQSGSDTVLKRMRRKYTMDRFSERLTKLHKALPDLAVTSDVIVGFPGETEAEFQETYDFIVKHKFSELHVFPYSPRIGTPAARMDDQIDEEIKNERVHKLITLSNQLGKLYASKFDQDVLEVIPEEQGDTEGTLVGYADNYMKVQFEGDESLIGQIVKVKITQANYPLNEGQAIKVVDFATNKSDREVLV	not soluble
MSLIGALIATIIPGLSNNSPPTQLSSLATLALPLPPPYTSTADTWRMVTIKPGQTLSSIFNELKLSSNDMERVLNYADLRKLLTRLSPGDEISFDIPNDGQLRGMRFNRDEKHRVELTLDDNTIHQQVSERQTSTRTVIASGEIKSSLWIAAREAGLSPADVITLTDEIFKYDIDFDKDLQTGDRFSVVMDETWREGERLPDAKILAATFNTGGKIYSGMRFMRDGKVEYFDKDGRPLKKSFIRMPISYARLSSTFGLRRHPILGTMRMHKGVDYAAATGTPIMAAGDARVQFIGQQRGYGNVVILNHGKGYRTLYGHMSRFGKIKAGQKINQGTVIGYVGMTGLATGPHLHYEFQVNGQHRNPLSITMPPPEPLRGKDLIAFRTQTAPLIAQIQQYEKRFYAITNKHDSKSTEKSTRGEGHHHHHH	not soluble
MIGFAYLRLQKPSVYVIASQHFDGSIAAGLFESFGFKNIRGSSKKGGVKVLIEGLKRLKEGCDVAITPDGPKGPRHSIADGVIALAQKSGVGISACRVVCKNAWRLNTWDQFEIPKPFSEVYYYMLESVIIPKEWELSRAKEYLKTRMDSVGFEEPQRGLGALEHHHHHH	soluble
MSASESDLAIVAEQLGREPRGVIEVSYHTPDGVPGVVMTTPKLDDGTPFPTLYYLTEPRLTAEASRLEVAHVMKWMTDRLHSDEELRQDYERAHEYFLAKRNALEDLGTDFSGGGMPDRVKCLHVLIAYALAEGPDHFRLGTEAVALAADHGGLRGTAIPQDWPTVESLGMSLDQFDFSHADVPGASK	not soluble
MGSDKIHHHHHHMNKIGYNMFQVDKNYWLVIAPYVYCCIKGKKALLYNTKNWEYLEVENENVIGLLRQLHKRDNLGAVFCEGKMLTELCYSNFISDFVLKEMGGVIDVASFPDKPIQMMPILNLQCDVDKLQQIEDRGIGEDILFNLLEINVFLYNVCDHHCLYCSKYSQQNLCCRVAETETSQVLDISALKSIIAQIRYGVVGRLNLFGGNIWKYPNYNDIPFLLSGFKGQIHIWSHYADFVGNKILDSDFFYDVIVPFPMEEELLRNCIFLLGDLQIKIHFYVTQIDEYAKAEEIVHKYAINDYSIHSTYVGCNLDYFEKYVYMDKGDILQSQYSMSQIFAHQKMNSHFFGSLSISVNGDVYANLNSLVLGNIYKDSLIDIVNKEMLDNTAWRKIRNDYPCCDCIYQWLCPSPSNYELAIGKPNLCHVKP	not soluble
MSILVIGANGGVGSKLVSQLNEEHVDFTAGVRKEDQVKELENKGIKATLIDVEKNSINDLKNIFTDYDKVIFSVGSGGSTGADKTIIVDLDGAVKTIKASKEAGIKHYVMVSTYDSRREAFDASGDLKPYTIAKHYADDYLRTSDLNYTIVHPGSLTDDAGTGKIEADLYFDKAGSIPREDVATVLKEVVTSDGFNNQEFQILSGNHGVKDALKNYESLEHHHHHH	soluble
MGSDKIHHHHHHKRQVSGDEAYLQASPLSELHAPAGMILPIQVGDYNIPVANSTGAVGKALDIRPPAQPLALVSGARTQFNGDTATLMVENGRSGSLWAQVTSILQAKNYVIAKRDDASQTLNTDWVEWNRLDEDQQYRGRYQISVKPQGYQQAVVVKLVNLEQAGKPVADPASLQRYSTAMLNVISEGLDMNATSAQNAAQRSAGATFDVQSAADDTGLPMLVVRAPFNLVWQRLPGALEKVGMKVTDSTRSQGSMALTYKPLSDSSWQELGARDPQLVSGDYKLQVGDLDNRSSLQFIDPKGHTLTQSQNDALVAVFQAAFNK	not soluble
SGSEPTKVMVAVNASTIKDYPNPSISCKRAFEWTLEKIVRSNTSDFKILLLHVQVVDEDGFDDVDSIYASPEDFRDMRQSNKAKGLHLLEFFVNKCHEIGVGCEAWIKTGDPKDVICQEVKRVRPDFLVVGSRGLGRFQKVFVGTVSAFCVKHAECPVMTIKRNADETPSDPADD	soluble
MGKFSKIKKVQEEESAHQKMEWEAAGAKDSSSDDSSDESDNDDQPKQATEETRKRAELWTNRERVLVLCSRGADVRTRYLMKDIKDLLPHAKGDSKLDQQKSLNVLNEIAEMKNCTKVMYFESRKRKDTYLWMSNVEKGPSIKFLVHNVHTMKELKMSGNCLRASRPVLSFDDAFDKKPQLKLIKAVLMQTLGTPHHHPRSQPFVDHVFNFSVGEGDKIWFRNFQIVDESLQLQEVGPRFVLEMVRLFAGSFEGAVLYDNPNYVSPNVIRREHRKGQHSYIEKQLAVKASNIKQAKVTEILAEKTVDLVGKEFDTQNNAAADSEAAAQITAQIEKRRVRKKKSQASKYTGSD	soluble
MSLGNPTSINPGGSSTTTGMAFNEENGFQVSDYAGQPEGPNLVYIEGGRTVLGSFEEDLMKNGDNVERTVTVASFYMDETEIANIHWLEYLFYVQRDSSQEFYESALPDTTVWASELAYNDPYVDHYFRYPGFRYFPVVGVNWIQANDYCIWRTTVVNNQLAQNAGIDVPEGGGRIPLESGVVLPNYRLPSEAEWEYAAQALIGNQWLDENQTHKRLYPWDGHALRNPYGKQMGMFLANFKRGRGDYAGIAGKLNDGAMITTYIYEFPPNDFGLYCMAGNVNEWVYDVYRPLSFQTFDDLNPLRRNGFLDEEKGYDKAGFQSLVDDHVRVYKGGSWKDVAYWMSPGTRRYLAEDSCTATIGFRCAMIQAGTEGHHHHHH	soluble
MGSDKIHHHHHHMSAKQYDTLNNAEITSLAHRALACYPAALQGEVRLLCRSENATFLVTSAGKRYALRLHRSHYHQKAEIESELLWLDALRETGIVVPEAVRDASGERVQSLGLSDGSCRYAVLFHWIDGEMPTTSIDPRTFQQLGEITAHLHQHSRQWQKPDGFQRIVWDHHTMVSAQSHWGSWRDAPNLSRDEHGIVEEAIERMGTEMAEFGKAPHRYGLIHADLRLTNLLLHRGETRVIDFDDCGMGWYLHDLAAAISFVEHHPRAAEWVENWLCGYERVAHVSDEELALLPTLLIQRRIQLTAWVGSHAETEMAQSLGPDWASHSVRLCRRYLETRDLPLGVA	not soluble
MGIFSERLKEAMQQANITSAQLSKQTGIGRSSISQWLSNKYVAKHDKVTALAAVLNVSPDWLLGTTDVATAVSPEAVPIPVSVTPTPAVDPELITLWEQLDTKQRSKLIKKARKLLTKSAEQPNTKRKKNKKKKKGKKRK	not soluble
MVKPKYSRVLIKLSGEALAGEKGVGIDIPTVQTIAQEIKEVHDSGIEIALVIGGGNLWRGEPASKAGMDRVQADYTGMLGTVMNALVMADALQHAGVDTRVQTAIAMQQVAEPYIRGRALRHLQKGRIVIFAAGVGSPYFSTDTTSALRAAEIEADAILMAKNGVDGVYNDDPRKNADAIKFNELTHMEVLKRGLKIMDSTASSLSMDNDIDLVVFNLNESGNIKRVIFGEQIGTTVTSRISDSEMAGDPLEHHHHHH	soluble
MLQYPELPLESPLIDAELPDPRGGRYRLSQFHEPLLAVVFMCNHCPYVKGSIGELVALAERYRGKVAFVGINANDYEKYPEDAPEKMAAFAEEHGIFFPYLLDETQEVAKAYRALRTPEVFLFDERRLLRYHGRVNDNPKDPSKVQSHDLEAAIEALLRGEEPPLKEAPAIGCTIKWRPGNEPEVRIG	soluble
MEVEKEFITDEAKELLSKDKLIQQAYNEVKTSICSPIWPATSKTFTINNTEKNCNGVVPIKELCYTLLEDTYNWYREKPLDILKLEKKKGGPIDVYKEFIENSELKRVGMEFETGNISSAHRSMNKLLLGLKHGEIDLAIILMPIKQLAYYLTDRVTNFEELEPYFELTEGQPFIFIGFNAEAYNSNVPLIPKGSDGMSKRSIKKWKDKVENK	soluble
MTIHLISFASILHKQASLRNSHEAILSELEKYYTVKLIDYQDMDKLGSDDFKIIFIATGGVERLVIQHFERLPRPAILLADGMQNSLAAALEISTWLRGRGMKSEILHGELPSIIQRVHILYNNFRAQRSLFGKRIGVIGTPSSWLVASNVDYLLAKRRWGIEYIDIPLERVYEHFKQITDDQVGASCAAVASQALACREGTPEDLIKAMRLYRAIKRICEEEKLEALTLSCFKLIDQIDTTGCLALSLLNDDGIMAGCEGDLQSIFTLLAVKALTGKEGFMANPSTINTRTNELILAHCTIGLKQTERYIIRNHFETEKGIAIQGLLPTGDVTIVKCGGECLDEYYLSTGTLTENTNYINMCRTQVRIRMNTPADYFLKNPLGNHHIMIHGNYEEALNEFLLSNACKRTE	not soluble
MASGQFVNKLQEEVICPICLDILQKPVTIDCGHNFCLKCITQIGETSCGFFKCPLCKTSVRKNAIR	soluble
